The results in this text go back to the supplement of paper PMC5998384.

The subject of series [1] is HeLa Kyoto. Kind of series: solubility in G1/S (NP-40 vs SDS abundance) (log2 ratio); higher = more soluble. The settings on record: cell cycle stage: G1/S.
For series [2], the system named is HeLa Kyoto. Kind of series: melting temperature (median over replicates), in situ; higher = more thermally stable.
The test system of series [3] is HeLa Kyoto. Put plainly: solubility change mitosis vs G1/S (difference of NP-40 vs SDS log2 ratios) (log2 ratio difference); higher = more soluble in mitosis.
Series [4] concerns HeLa Kyoto. Put plainly: thermal stability score vs G1/S (z-score of summed log2 fold changes over temperatures); higher = more thermally stable than in G1/S.
[5] abbreviates: cell cycle stage: early G1 (4.5 h after nocodazole release).
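Throughout, for melting temperature (median over replicates), in situ: HeLa Kyoto cells synchronized by double thymidine or nocodazole block, proteins quantified by TMT10plex mass spectrometry, three independent biological replicates.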
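Throughout, for solubility change mitosis vs G1/S (difference of NP-40 vs SDS log2 ratios): synchronized HeLa Kyoto cells (double thymidine block for G1/S, nocodazole release for mitosis), protein amounts in NP-40 versus SDS lysates quantified by mass spectrometry, three biological replicates.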
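Throughout, for solubility in G1/S (NP-40 vs SDS abundance): HeLa Kyoto cells arrested at G1/S by double thymidine block, proteins quantified by TMT10plex mass spectrometry in mild NP-40 versus SDS extracts, three biological replicates.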
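Throughout, for thermal stability score vs G1/S (z-score of summed log2 fold changes over temperatures): synchronized HeLa Kyoto cells, proteins quantified by TMT10plex mass spectrometry, three biological replicates, mitosis taken 0.5 h after nocodazole release, G1/S directly after double thymidine block.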

Sequence of ZMAT2 (chain, as listed by the source): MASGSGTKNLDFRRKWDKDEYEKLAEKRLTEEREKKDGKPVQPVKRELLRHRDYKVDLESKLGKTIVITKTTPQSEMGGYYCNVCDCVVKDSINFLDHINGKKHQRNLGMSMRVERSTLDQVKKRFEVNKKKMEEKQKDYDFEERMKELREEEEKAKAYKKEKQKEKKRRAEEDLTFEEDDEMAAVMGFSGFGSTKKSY
Sequence of ZFR (chain, as listed by the source): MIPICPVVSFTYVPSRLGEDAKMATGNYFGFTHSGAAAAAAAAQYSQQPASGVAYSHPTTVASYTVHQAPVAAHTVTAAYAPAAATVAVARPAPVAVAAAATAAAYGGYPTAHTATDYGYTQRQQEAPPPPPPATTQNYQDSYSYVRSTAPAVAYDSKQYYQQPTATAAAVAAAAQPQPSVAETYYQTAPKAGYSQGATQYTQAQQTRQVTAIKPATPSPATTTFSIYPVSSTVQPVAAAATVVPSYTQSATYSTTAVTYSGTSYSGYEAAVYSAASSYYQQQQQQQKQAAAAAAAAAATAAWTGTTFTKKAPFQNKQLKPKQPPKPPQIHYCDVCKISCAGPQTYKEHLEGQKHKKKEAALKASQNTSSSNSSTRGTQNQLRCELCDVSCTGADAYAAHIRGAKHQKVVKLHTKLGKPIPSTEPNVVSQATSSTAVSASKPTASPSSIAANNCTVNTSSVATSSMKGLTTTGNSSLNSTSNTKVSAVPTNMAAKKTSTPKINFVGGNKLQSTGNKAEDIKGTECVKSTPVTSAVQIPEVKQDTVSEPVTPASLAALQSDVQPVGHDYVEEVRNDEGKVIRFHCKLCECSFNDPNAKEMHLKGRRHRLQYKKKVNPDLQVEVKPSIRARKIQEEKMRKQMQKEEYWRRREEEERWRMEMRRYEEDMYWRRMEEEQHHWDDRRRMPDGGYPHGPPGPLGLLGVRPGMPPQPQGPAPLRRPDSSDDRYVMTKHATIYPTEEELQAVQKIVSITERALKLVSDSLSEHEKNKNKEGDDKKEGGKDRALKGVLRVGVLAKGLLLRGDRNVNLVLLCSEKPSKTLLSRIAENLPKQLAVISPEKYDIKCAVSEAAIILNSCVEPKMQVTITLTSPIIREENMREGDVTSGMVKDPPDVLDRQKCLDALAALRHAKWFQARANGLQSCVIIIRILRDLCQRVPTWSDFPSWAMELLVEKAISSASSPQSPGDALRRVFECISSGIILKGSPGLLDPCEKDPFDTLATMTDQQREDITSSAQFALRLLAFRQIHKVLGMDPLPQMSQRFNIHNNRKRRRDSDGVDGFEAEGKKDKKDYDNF

For YLPM1, the “solubility in G1/S (log2)” value with HeLa Kyoto [1] was -0.708. For the same substance, the melting temperature with HeLa Kyoto [2] (cell cycle stage: G1/S) and in the series on HeLa Kyoto [2] (cell cycle stage: mitosis) was 48.3 °C in each case. Moreover, in the series with HeLa Kyoto [3], the “solubility change mitosis (log2)” value turned out to be 0.495. Further, the figures for the thermal stability score in the series on HeLa Kyoto [4] (setting [5]) and in the series with HeLa Kyoto [4] (cell cycle stage: mitosis) were 0.777 and 0.487, respectively.
With ZFC3H1, the “solubility in G1/S (log2)” value in the series with HeLa Kyoto [1] was -0.247. Also, the melting temperature in the series on HeLa Kyoto [2] (cell cycle stage: G1/S) came out at 49.3 °C; in the series with HeLa Kyoto [2] (cell cycle stage: mitosis) it was 49.9 °C. Also, the “solubility change mitosis (log2)” value in the series with HeLa Kyoto [3] stood at 0.0411. Also, the values for the thermal stability score in the series on HeLa Kyoto [4] (setting [5]) and in the series on HeLa Kyoto [4] (cell cycle stage: mitosis) were 0.428 and 0.858, respectively.
Regarding ZFR, in the series with HeLa Kyoto [1], the “solubility in G1/S (log2)” value was -0.167. Moreover, the melting temperature in the series on HeLa Kyoto [2] (cell cycle stage: G1/S) worked out at 52.4 °C; in the series on HeLa Kyoto [2] (cell cycle stage: mitosis), 51.9 °C. The “solubility change mitosis (log2)” value in the series on HeLa Kyoto [3] came out at 0.103. For the same substance, the thermal stability score in the series with HeLa Kyoto [4] (setting [5]) was 0.655; in the series on HeLa Kyoto [4] (cell cycle stage: mitosis), -0.928.
ZMAT2: the “solubility in G1/S (log2)” value with HeLa Kyoto [1] was -0.324. Moreover, the melting temperature in the series on HeLa Kyoto [2] (cell cycle stage: G1/S) was found to be 57.8 °C; in the series on HeLa Kyoto [2] (cell cycle stage: mitosis) it was 54.3 °C. Further, the “solubility change mitosis (log2)” value with HeLa Kyoto [3] was determined as 0.427. In addition, the thermal stability score in the series on HeLa Kyoto [4] (setting [5]) was 1.39; in the series on HeLa Kyoto [4] (cell cycle stage: mitosis) it was -4.93.
For ZMYM4, in the series with HeLa Kyoto [1], the “solubility in G1/S (log2)” value was -0.601. In addition, the melting temperature in the series with HeLa Kyoto [2] (cell cycle stage: G1/S) stood at 46 °C; with HeLa Kyoto [2] (cell cycle stage: mitosis), 49.4 °C. In addition, the “solubility change mitosis (log2)” value in the series with HeLa Kyoto [3] stood at 0.281. Besides, the thermal stability score in the series with HeLa Kyoto [4] (setting [5]) is 1.6; with HeLa Kyoto [4] (cell cycle stage: mitosis), 3.25.
Regarding ZNF24, the “solubility in G1/S (log2)” value in the series with HeLa Kyoto [1] is -0.217. Also, in the series on HeLa Kyoto [2] (cell cycle stage: mitosis), the melting temperature was determined as 52.2 °C. For the same substance, the “solubility change mitosis (log2)” value with HeLa Kyoto [3] came to 0.265. For the same substance, the thermal stability score is 1.15 in the series on HeLa Kyoto [4] (setting [5]) and 1.78 in the series with HeLa Kyoto [4] (cell cycle stage: mitosis).
